Measured values as given in patent US20100056456A1.

Target: human N-type calcium channel (human) (UniProt Q00975)
Experiment: cell-based or functional assay

human N-type calcium channel (human), sequence (Q00975 whole entry): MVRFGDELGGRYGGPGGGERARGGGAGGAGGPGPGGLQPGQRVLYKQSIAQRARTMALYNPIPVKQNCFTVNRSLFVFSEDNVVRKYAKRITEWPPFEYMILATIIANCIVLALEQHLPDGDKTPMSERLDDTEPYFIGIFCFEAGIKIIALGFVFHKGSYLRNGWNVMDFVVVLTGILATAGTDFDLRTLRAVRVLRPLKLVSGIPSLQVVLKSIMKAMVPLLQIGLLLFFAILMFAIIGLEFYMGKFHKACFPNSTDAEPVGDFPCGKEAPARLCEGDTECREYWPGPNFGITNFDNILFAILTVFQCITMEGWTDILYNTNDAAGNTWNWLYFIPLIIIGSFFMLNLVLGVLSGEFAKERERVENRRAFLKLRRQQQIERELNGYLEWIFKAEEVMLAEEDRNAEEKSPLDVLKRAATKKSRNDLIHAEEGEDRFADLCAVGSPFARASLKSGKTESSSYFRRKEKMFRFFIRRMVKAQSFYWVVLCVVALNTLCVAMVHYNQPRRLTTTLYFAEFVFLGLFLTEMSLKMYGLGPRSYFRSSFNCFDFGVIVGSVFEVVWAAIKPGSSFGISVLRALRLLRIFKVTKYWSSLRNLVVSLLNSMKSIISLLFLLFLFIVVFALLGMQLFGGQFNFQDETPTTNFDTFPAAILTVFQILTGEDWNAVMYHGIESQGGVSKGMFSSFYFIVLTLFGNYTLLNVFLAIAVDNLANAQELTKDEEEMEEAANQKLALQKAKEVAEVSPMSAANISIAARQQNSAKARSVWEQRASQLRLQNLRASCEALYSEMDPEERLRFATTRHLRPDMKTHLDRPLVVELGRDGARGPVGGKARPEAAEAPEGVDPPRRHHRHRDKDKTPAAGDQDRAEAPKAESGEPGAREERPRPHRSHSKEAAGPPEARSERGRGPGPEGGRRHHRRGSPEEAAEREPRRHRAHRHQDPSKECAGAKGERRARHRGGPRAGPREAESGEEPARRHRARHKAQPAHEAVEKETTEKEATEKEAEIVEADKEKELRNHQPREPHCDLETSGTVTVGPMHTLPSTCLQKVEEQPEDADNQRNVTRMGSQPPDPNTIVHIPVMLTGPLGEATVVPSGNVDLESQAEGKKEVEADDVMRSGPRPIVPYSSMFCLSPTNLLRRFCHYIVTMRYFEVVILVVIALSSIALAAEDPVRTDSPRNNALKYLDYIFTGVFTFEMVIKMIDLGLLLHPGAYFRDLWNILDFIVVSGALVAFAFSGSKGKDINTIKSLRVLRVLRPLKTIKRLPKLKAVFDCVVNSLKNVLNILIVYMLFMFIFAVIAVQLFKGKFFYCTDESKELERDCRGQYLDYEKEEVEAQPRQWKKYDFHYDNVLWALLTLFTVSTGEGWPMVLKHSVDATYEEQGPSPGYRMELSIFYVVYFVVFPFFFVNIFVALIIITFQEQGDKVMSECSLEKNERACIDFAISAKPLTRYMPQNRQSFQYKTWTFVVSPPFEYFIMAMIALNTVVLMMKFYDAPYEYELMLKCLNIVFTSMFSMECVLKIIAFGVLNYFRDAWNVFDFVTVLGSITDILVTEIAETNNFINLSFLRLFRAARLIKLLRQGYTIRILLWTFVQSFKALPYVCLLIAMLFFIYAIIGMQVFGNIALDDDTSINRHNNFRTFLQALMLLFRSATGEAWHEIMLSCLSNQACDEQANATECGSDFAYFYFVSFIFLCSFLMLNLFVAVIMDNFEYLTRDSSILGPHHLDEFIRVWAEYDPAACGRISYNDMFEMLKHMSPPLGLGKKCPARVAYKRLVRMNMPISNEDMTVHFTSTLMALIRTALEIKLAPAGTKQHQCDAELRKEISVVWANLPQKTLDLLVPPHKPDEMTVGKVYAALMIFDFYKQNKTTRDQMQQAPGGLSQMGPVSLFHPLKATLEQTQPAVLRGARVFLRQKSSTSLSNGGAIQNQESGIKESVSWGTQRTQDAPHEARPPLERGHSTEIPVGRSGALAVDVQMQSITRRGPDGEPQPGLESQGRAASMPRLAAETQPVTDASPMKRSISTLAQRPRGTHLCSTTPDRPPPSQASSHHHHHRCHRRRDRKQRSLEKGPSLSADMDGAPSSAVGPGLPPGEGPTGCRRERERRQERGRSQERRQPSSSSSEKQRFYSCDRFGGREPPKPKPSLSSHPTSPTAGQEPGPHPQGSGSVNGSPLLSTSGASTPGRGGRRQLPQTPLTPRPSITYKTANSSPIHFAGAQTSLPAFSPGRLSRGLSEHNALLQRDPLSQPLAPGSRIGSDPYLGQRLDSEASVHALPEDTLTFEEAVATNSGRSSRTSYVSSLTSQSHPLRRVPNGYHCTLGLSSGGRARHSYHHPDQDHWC

Substance	IC50 of dose-inhibition curve, whole-cell patch clamp of N-type Ca2+ current	recovery after washout (FIG. 5)
ω-conotoxin MVIIA (peptide)	7.96 nM	35%
ω-conotoxin FVIA (peptide)	11.5 nM	75%
